# Experimental data published in the DeepSol protein solubility set.
# Assay: soluble on expression in E. coli; label from the status in PepcDB or PDB records
row,Sequence,soluble on expression in E. coli
1,MTETIKCIGCGVEIQTEDKNEVGYAPASSLEKEQVICQRCFRLKHYNEIQDVSLTDDDFLRILNGIGKSDALVVKIVDIFDFNGSWLPGLHRFVGNNKVLLVGNKADLIPKSVKHDKVKHWMRYSAKQLGLKPEDVFLISAAKGQGIAELADAIEYYRGGKDVYVVGCTNVGKSTFINRMIKEFSDETENVITTSHFPGTTLDLIDIPLDEESSLYDTPGIINHHQMAHYVGKQSLKLITPTKEIKPMVFQLNEEQTLFFSGLARFDYVSGGRRAFTCHFSNRLTIHRTKLEKADELYKNHAGDLLSPPTPEELENMPELVKYEFNIREPKTDVVFSGLGWVTVNEPGAKIVAHVPKGVSVSLRKSLILEHHHHHH,not soluble
2,MSLSARSSHLSQPVVKSVLVYRNGDPFYAGRRVVIHEKKVSSFEVFLKEVTGGVQAPFGAVRNIYTPRTGHRIRKLDQIQSGGNYVAGGQEAFKKLNYLDIGEIKKRPMEVVNTEVKPVIHSRINVSARFRKPLQEPCTIFLIANGDLINPASRLLIPRKTLNQWDHVLQMVTEKITLRSGAVHRLYTLEGKLVESGAELENGQFYVAVGRDKFKKLPYSELLFDKSTMREGHHHHHH,not soluble
3,MGSDKIHHHHHHMNGTATGPRSSHFHWLLCALIVALPGCRDKPLREVIDRPVLFTEIADPQNASYGRFAGSIQPQHEVALGFRIAGRLATRHAEMGDRVRKGDLLATLDPSDQQNRLRARQAELSRARSAWQQLSDEQTRYQQLYTRGVGSRARLDQLNSDLRSQNALLDQASAAVQQAGDHLAYTRLTAEFDGLVTQWQTEVGQVMATGQAVVSLARPESREAVVDLPVGLLASLDDSRQIRVISQLDKQVSVIASVRQLAPQIDAGTRTQRVRLALQHIPDSLRLGSTVTVEISGNAPAFHELPASAVLARDGKDQVWVIDPSTSTLSPRAVQVLARKGGKVQVSGELHEGEKVVTAGVNGMQSGQKIRMQREVSL,not soluble
4,FPPRIVNPVVTPVTDTLTDTTDTKEYAVQTAIPDQRKVARPRADALRNRERIVLAAREMFVEHGPDVPLDDVARRAGVGNATVYRNFPDRDALVREVVCSVMDRTARAAELALAETGDAFEALERFVHASADERISALCPMVASTFDQHHPDLEAARGRVERLVAEVMDRAKAAGQLRGDVGVGDLMIAAAQLSRPPAGTGCVNADRFVHRHLQLFLDGLRAPARSVLPGAAVTLEDLRRPCDQ,not soluble
5,MGSDKIHHHHHHLLDYAGAIEEFSHALQLTPYFAEAYLQRGLAYYDSGAILKAVSDYTEALKLNPESVEAYYCRGLARVALKNLPGALEDVERAIRLNLNYAAAYNLRGMVRRKQGYVQDAIANFKKAAQLYLEQQDKENCRLCLERIKQLQPQELPVLQQSRSPNAPILSTNDYFTQLLEKAEKGDTQEALADLNWVLKADSQDAQAYCCRGVVRCKMGDYREAIADFNQALRLNFQDAIVYRNRGKARSILGDHQGAIADLNQALQMQPQDALVYIARGNAYRSTGNYLGAIQDYTQALQINPDDAQAYYNRGIAYTCLEEMQNAVEDYQRAASIFCEQEDWGNYQQVLSSLEKIQKFSPQSKKQKYNLLHQRLLQMVGGYWEIAERLIQQKQDYHPGMSDEWYLQKVIDDLERDRGR,not soluble
6,MAHHHHHHMNYDKLNLFKENFDMMYVIEEIETHLHEKKHLLCDINENILISEKNKTSIDIYEKHLIEKQIQILKKNKINYKKLNNINYVKYFLPLCIQPKTNNTDKCLSERDVYMKNFKKKNILRELHVKKRLTEYRINQFIEKYTGKFLKNNVLHKQISKIYNNKSKIEIFIKGDNFSYNRVIGDIAFFDSKPNVLLENVKYIVRKRKKKKLNNIKKNINI,not soluble
7,MGHHHHHHGSTTQRNAQIAMGRKKFNMDPKKGIQFLIENDLLQSSPEDVAQFLYKGEGLNKTVIGDYLGERDDFNIKVLQAFVELHEFADLNLVQALRQFLWSFRLPGEAQKIDRMMEAFASRYCLCNPGVFQSTDTCYVLSFAIIMLNTSLHNHNVRDKPTAERFITMNRGINEGGDLPEELLRNLYESIKNEPFKIPEDDGNDLTHTFFNPDREGWLLKLGGRVKTWKRRWFILTDNCLYYFEYTTDKEPRGIIPLENLSIREVEDPRKPNCFELYNPSHKGQVIKACKTEADGRVVEGNHVVYRISAPSPEEKEEWMKSIKASISRDPFYDMLATRKRRIANKK,soluble
8,MKFGWIKTTGNDLEERMESVKDALESSIPGIIAEKEEISSVRELGNIKIVSDNLDADVVLINKGEDLEILKSAKLSGKETGVYVVINTKEDEVYATDVSKLDFVDYVVLEGSDWTIIPLENIIADLFSEEIKIVSVVTNVKDAEAAYEILEKGVDGVVLIPKDINEVKDFSKLIERMNSESVKLDYATVTKIEPVGSGDRVCIDTCSMMEMGEGMLIGSYSRGMFLVHSETVENPYVATRPFRVNAGPVHAYILCPENKTKYLSDLKAGDKVLVVNKNGETREAIIGRVKIEKRPLFLVEAEYNGENLRTILQNAETIRLVGEDGKPVSVVDLKVGTKVLIKPDENARHFGMAIKETIIEKLEHHHHHH,soluble
9,MAHHHHHHMGKRDLQKEKQQELAAIWGSEVQGDARFPKRRRAAQKQGLGAVENNDDVDTDVLSDIVSDAGSITSKHSDTAKKETRKTAKKKSTNYRLHCFVEPGTELNAVRTVFEAYEPKVEIRTAQKGNLLNKSQFAVLTFRNKAMALHAVKKLDGTNQRDLLGVSSLKLNLMLTRQQSKIARKTFNRKIRQEKERNQLMEEQADLAFIRNFLKQHSGAKKDKQNGKALSLS,soluble
10,MEFAAENEGKSGGGLHSVAEGVRLSPEPGREGVRDLAGAEEFGGGEEGTGLTGIKEIGDGEEGSGQRPEEIPMDLTVVKQEIIDWPGTEGRLAGQWVEQEVEDRPEVKDENAGVLEVKQETDSSLVVKEAKVGEPEVKEEKVKEEVMDWSEVKEEKDNLEIKQEEKFVGQCIKEELMHGECVKEEKDFLKKEIVDDTKVKEEPPINHPVGCKRKLAMSRCETCGTEEAKYRCPRCMRYSCSLPCVKKHKAELTCNGVRDKTAYISIQQFTEMNLLSDYRFLEDVARTADHISRDAFLKRPISNKYMYFMKNRARRQGINLKLLPNGFTKRKENSTFFDKKKQQFCWHVKLQFPQSQAEYIEKRVPDDKTINEILKPYIDPEKSDPVIRQRLKAYIRSQTGVQILMKIEYMQQNLVRYYELDPYKSLLDNLRNKVIIEYPTLHVVLKGSNNDMKVLHQVKSESTKNVGNEN,soluble
11,MAHHHHHHMSHTFTDPLVDLASVSFQYPHGGGGSAGGIRDVSVRVNGGDRVLVVGHNGSGKSTLLSVIAGRRKASSGRATVLGSDAFDDTRLQQHVTLIGRPWPTEAFFATTVDQVTSQAPLPERKRSVADALHLDLGRAVSNMSSGERRRVQILHGLLQKSFVYLLDECSTDIDIAERMTVLDLVRSECVVGDSCCLYATHIFDGVSDWATHLLLMQGGMVVDFKRVSDLNAPLEVFVCHFLTRRHRGLFDHTSKRTPVKDAYNDDWKGGGTVTALPLEKEAVIVCDRLQYRNIFRNLSFTVYRGDRVLLCGCNGAGKSTLLKMMGGKQFFNNCNGSLRILGKSCYDDMTLNGLVAFGGEWWDTAPPGEMHVHEMLQLQTPRAEWLCKVLGVDLSWDVRHISTGEQKHVQLLLHLLEDKPVILLDEATSDLDLDQRQELLSFLYSESVNRGVTVVYATHIFGGLENWPTAVMMLDRTTQGLHAMWCGSDVKWAEVTRELIALK,not soluble
12,SLSWLTTHFVVTNRRVMFRHGVLTRSGIDIPLARINSVEFRDRIFERIFRTGTLIIESASQDPLEFYNIPRLREVHALLYHEVFDTLGSDESPS,soluble
13,MEQQLKDIISACDLAIQNEDFDTLMNYYSEDAVLVVKPGMIARGKEEIKKAFITIANYFNHHIVPTQGKMILLEAGDTVLVLSQTLLDSDKKDSEYAMERRATYVFKKNAQGEWLCVIDNSYGTDLIGVMAGDPLEHHHHHH,soluble
14,MEKQEEEDVKRRQRQKAATSLGFLHWEELKNHGDLSKVALNIALTTLVDDASTGFCIMNLVNLIVLRESSQGYLLTYEGKLASLASATYVKAFISLWVLEDAERHAWSFRTFSLTFPLDDPILDTFLELTGVTEAGEFVYAPTTLQSPFHALYFDPQRNSFRRVIYEGLADDEFRRRNRLGYERHHILPNHIESLISL,soluble
15,SLPRDENMPLIQVIDDDVSMLILLKDALESKGWMVMANTEPEKAVDQFFDMNPDCLIIDVNLPGKSGFHVLEDIQKHTNKKFIPKLMISIMNDRETRIKAYRLGADDFISKPIDLEEFLIKVERHLDRKQIFDQSVLIDELTQVYNRRFLKDSLKRYLKELERSNQYFSIAVLDLDHFKQVNDMYGHPAGDRILSEFAQYLKDHVRIGDIVFRYGGEEFILLLPRTNDHDSKEVVSRLLSGFSSRTFIEGGAELKMTFSAGVYMVHDPSATVAEAIKTADQALYKAKRNGRARVESANKLIGGHSRKVLNVSVIDDDAIIRTMLMKILQSMEFEHTSLDIQVYEDGQKFLQSGRMEQKGEHFLILDGIMPVMDGTEVLQKVKENRNASRVHVLMLTGRKTEYDIARALKLGADDYVTKPFSITELQARIHRLIQRMSEG,soluble
16,MAHHHHHHMDKDKDKSKNTPLLYQDTMNDLGDGLQNMDTLRLNRNGNTGNGNKNKTNGSKGVKGEYEKKKETNGHDDYVKESLNRMLESHIDQYFKGLDYYKNNPKCKIDPKIHLHGSEEIENYIVKEKIFVTTYFQYIDVYENAINVDEDLEKEEIVYVEVPKYVTKYKPKIVTNIIEKTIEIPSGEEIKQPKYNTVNVPYVIPNIVENEILVVLKKIIQPEIEITNEELEIEVEKYIPRLVPVNVYVPRYFGISAKAKGEPEESVRYVDLTQDQIDELMKELNPHLNELKVFNETQLKRMDEYMRESQMQARAHNFEPPQPQLITYDESGHCQSYDYSEFHRFKETCIKELTH,not soluble
17,VTTRDLTAAQFNETIQSSDMVLVDYWASWCGPCRAFAPTFAESSEKHPDVVHAKVDTEAERELAAAAQIRSIPTIMAFKNGKLLFNQAGALPPAALESLVQQLKAYEVEAGEATTQNGRAQQA,soluble
18,MAVGAPFLYRYSLYNCAYVILNGKVLGIVPKSYIPNYSEFYEKRWFTEGFNIKGLNVDLDFQKEVPFGTDLIFSFKNLKVGFEICEDLWVTIPPSSNLALMGANLICNLSASNELVSKSSYRKSLVQNQSARTMCSYIYSSAGVHESTTDLLFSGHMIIAENGTIIKENNRFKRENDLLTGIVDLFKLDAERIKNISFRNSTFNENNEPRFIPFNLENTEIKNFDREIDKHPFLPKSQYAMEARCEEILNIQAAALAKRLEHTNLKKAVIGISGGLDSTLALLVVVKTFDMLNIPRENIITITMPGFGTTDRTYNNAVTLCKELHCDFREINIVNAALQHFEDIGHDKDIHDVTYENVQARERTQILMDLANKEGGLLIGTGDLSELALGWCTYNGDHMSMYSVNCSIPKTLVRFLVNYFANHEISNDAKEALLDILDTPVSPELEHHHHHH,soluble
19,MGSDKIHHHHHHMKVLELKNVSVRYKTGEKTVNAVENVSFHLEKGETLGLVGESGCGKSTLGFSIMRLLPKGTKIDGSIKIEGIDISSLSDEEMRQIRGSKVAMIFQDPMTSLNPILRIEDHFVEMILTHRPELSKEDARELAAKALEDVGINRNRLKDYPFQFSGGMRQRVMIALSIVLNPAVLIADEPTTSLDVIVQAQIMELLEKLTKEHRTAMILITHDMGLVAEAADRIGVMYAGHLVELASKERIFTNPLHPYTVGLLRSIPNTDVNDKELRYIPGSPPDLSNPPEGCRFAPRCEKAMKICWEKEPPEFEIDGTRVKCWLYGGDQNGTD,not soluble
20,AQNSTVKINGLTLVQSSNQLNEAITGVTIDLKKAEIGKIVTLTVDDNKDQLTGLINEFIKQYNDTMTFLTNLTGYNNETKQGGVFQGDPQFRNLKLNLNKWATTPLANQEGPIRSLADLGIITNKQGLLEIKQDKFKTALDNHYKEIGALFAKTAKANDTGINVKSINSTVKSGTYDVVLTEFTPGVSMSGTIGGLSAISSDGITLTGSADLSGLSINVFSGSAGSRGQITVTDGIAVQLSSLLDAYIEIKGDLEQRKDQLNNQVKQLNKIQNEIDIRRKSIETRYLKQFTALDTLLSQLQS,soluble
